Measurements from patent publication US20250276018A1 (AFFYIMMUNE THERAPEUTICS, published 2025).
Like-named read-outs stand apart in the source and are kept apart here. One block for each binder: values may come before it.

What was measured:
[1] = target: T1, AF647 labeled c-met protein (UniProt P08581 25-932, limits assumed, labeled with AlexaFluor 647 (AF647)); experiment: flow cytometry, AF647-labeled c-met protein titrated on CAR-T cells (Round 1)
T1 construct: Soluble labeled c-met protein titrated on CAR-T cells
Experimental: (§1) Binding of labeled c-MET to CAR-T cells expressing the affinity tuned c-MET scFvs was evaluated by transducing lentivirus anti-c-MET CAR particles into human T cells to form c-MET CAR-T cells incubated with AF647-labeled c-MET. […] Following a 48 hr. incubation at 37° C., the culture media was brought up to […] per well and incubated at 37° C. for 10 days.
(§2) Cells were stained on ice for 30 mins and then washed with PBS. After washing, residually bound protein on CAR T cells were measured on a flow cytometer (Beckman, CytoFLEX®). The resulting binding data was fit using a non-linear regression analysis on GraphPad Prism to calculate half effective dose concentration (EC₅₀) values. The results of this analysis are shown in FIGS. 2-5 and Tables 2-5 below.

[2] = target: T2, c-MET on human target cells (human, UniProt P08581 25-1390); experiment: cell-based or functional assay
[3] = target: T2, c-MET on human target cells; experiment: cell-based or functional assay; remark: listed apart in the source
[4] = target: T2, c-MET on human target cells; experiment: cell-based or functional assay; remark: listed apart in the source
[5] = target: T2, c-MET on human target cells; experiment: cell-based or functional assay; remark: listed apart in the source
[6] = target: T1, AF647 labeled c-met protein; experiment: flow cytometry, AF647-labeled c-met protein titrated on CAR-T cells (Round 2)
Experimental: as §1, §2

[7] = target: T2, c-MET on human target cells; experiment: cell-based or functional assay; remark: listed apart in the source
[8] = target: T2, c-MET on human target cells; experiment: cell-based or functional assay; remark: listed apart in the source
[9] = target: T2, c-MET on human target cells; experiment: cell-based or functional assay; remark: listed apart in the source
[10] = target: T2, c-MET on human target cells; experiment: cell-based or functional assay; remark: listed apart in the source
[11] = target: T2, c-MET on human target cells; experiment: cell-based or functional assay; remark: listed apart in the source
[12] = target: T2, c-MET on human target cells; experiment: cell-based or functional assay; remark: listed apart in the source
[13] = target: T2, c-MET on human target cells; experiment: cell-based or functional assay; remark: listed apart in the source
[14] = target: T2, c-MET on human target cells; experiment: cell-based or functional assay; remark: listed apart in the source
[15] = target: T2, c-MET on human target cells; experiment: cell-based or functional assay; remark: listed apart in the source
[16] = target: T2, c-MET on human target cells; experiment: cell-based or functional assay; remark: listed apart in the source
[17] = target: T2, c-MET on human target cells; experiment: cell-based or functional assay; remark: listed apart in the source
[18] = target: T1, AF647 labeled c-met protein; experiment: flow cytometry, EC50 relative to parental Affy7 CAR-T cells (Round 2)
Experimental: as §1, §2

T1 sequence (P08581 25-932 limits assumed): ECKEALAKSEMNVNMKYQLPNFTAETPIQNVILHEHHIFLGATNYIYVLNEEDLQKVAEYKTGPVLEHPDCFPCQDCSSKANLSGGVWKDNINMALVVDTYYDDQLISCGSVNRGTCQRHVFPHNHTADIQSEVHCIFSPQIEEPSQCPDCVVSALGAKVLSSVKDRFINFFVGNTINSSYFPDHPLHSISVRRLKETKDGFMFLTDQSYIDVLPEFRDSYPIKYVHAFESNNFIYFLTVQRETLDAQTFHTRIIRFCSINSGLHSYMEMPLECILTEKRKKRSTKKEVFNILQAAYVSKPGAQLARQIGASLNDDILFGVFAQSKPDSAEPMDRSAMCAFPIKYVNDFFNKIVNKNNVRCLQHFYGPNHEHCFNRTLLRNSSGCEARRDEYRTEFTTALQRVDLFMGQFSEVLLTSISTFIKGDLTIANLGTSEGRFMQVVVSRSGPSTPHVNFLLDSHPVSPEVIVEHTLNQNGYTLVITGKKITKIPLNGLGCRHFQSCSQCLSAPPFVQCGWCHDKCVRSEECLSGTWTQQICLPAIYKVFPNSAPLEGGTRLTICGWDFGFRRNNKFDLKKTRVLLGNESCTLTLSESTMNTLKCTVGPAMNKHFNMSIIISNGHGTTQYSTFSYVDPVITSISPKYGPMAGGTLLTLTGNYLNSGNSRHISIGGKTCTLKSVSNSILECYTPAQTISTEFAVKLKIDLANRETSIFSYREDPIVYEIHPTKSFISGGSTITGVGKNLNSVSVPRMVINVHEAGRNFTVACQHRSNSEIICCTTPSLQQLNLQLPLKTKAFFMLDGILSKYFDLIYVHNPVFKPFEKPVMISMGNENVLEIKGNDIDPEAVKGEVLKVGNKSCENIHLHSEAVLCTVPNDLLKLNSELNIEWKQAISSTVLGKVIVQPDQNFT
T2 sequence (P08581 25-1390): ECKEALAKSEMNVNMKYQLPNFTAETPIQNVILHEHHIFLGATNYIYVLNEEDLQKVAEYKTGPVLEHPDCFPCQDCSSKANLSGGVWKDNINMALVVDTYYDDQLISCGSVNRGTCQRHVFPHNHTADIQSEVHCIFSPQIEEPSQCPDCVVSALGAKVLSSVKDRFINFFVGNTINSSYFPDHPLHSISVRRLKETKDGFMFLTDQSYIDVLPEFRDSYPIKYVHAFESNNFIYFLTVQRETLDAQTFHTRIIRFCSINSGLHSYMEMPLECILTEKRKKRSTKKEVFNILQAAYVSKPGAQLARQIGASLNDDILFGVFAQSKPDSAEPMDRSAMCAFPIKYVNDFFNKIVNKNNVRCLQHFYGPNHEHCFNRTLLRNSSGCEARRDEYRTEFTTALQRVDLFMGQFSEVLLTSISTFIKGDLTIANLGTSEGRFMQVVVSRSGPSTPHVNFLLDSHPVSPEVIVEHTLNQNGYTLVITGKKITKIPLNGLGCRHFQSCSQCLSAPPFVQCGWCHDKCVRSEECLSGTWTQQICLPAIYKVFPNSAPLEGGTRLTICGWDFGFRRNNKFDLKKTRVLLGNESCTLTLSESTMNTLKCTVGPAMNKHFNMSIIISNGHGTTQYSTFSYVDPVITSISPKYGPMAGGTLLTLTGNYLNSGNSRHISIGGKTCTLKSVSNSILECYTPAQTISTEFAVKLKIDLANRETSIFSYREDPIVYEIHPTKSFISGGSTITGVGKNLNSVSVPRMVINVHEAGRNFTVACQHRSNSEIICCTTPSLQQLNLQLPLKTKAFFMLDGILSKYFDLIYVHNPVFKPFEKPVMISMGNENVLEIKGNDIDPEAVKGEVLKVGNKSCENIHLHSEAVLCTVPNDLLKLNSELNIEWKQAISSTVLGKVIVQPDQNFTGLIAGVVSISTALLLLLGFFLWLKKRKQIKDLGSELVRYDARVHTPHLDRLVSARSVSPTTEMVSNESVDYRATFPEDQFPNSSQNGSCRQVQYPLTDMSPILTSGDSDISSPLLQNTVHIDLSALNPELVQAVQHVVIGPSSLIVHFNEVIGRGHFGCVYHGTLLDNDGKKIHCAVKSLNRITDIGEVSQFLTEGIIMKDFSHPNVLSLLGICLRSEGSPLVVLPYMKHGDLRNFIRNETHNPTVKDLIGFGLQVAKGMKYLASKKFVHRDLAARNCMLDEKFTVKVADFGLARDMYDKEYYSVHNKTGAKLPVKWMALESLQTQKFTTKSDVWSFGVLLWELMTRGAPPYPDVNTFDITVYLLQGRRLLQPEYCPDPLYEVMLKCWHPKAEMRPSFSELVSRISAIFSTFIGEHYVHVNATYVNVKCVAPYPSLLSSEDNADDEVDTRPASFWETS

- EC50 [1]: 20 nM
- EC50 [6]: 20 nM
B1: Affy6 CAR (control) (other)
chain: GSEQKLISEEDLGSQVQLVQSGAEVKKPGASVKVSCKASGYIFTAYTMHWVRQAPGQGLEWMGWIKPNNGLANYAQKFQGRVTMTRDTSISTAYMELSRLRSDDTAVYYCARSEITTEFDYWGQGTLVTVSSGGGGSGGGGSGGGGSDIVLTQSPDSLAVSLGERATINCKSSESVDSYANSFMHWYQQKPGQPPKLLIYRASTRESGVPDRFSGSGSRTDFTLTISSLQAEDVAVYYCQQSKEDPLTFGGGTKVEIKASTTTPAPRPPTPAPTIASQPLSLRPEACRPAAGGAVHTRGLDFACDFWVLVVVGGVLACYSLLVTVAFIIFWVRSKRSRLLHSDYMNMTPRRPGPTRKHYQPYAPPRDFAAYRSLRVKFSRSADAPAYQQGQNQLYNELNLGRREEYDVLDKRRGRDPEMGGKPRRKNPQEGLYNELQKDKMAEAYSEIGMKGERRRGKGHDGLYQGLSTATKDTYDALHMQALPPR
notes: Chimeric antigen receptor on transduced human T cells; P2A remnant not included; also called parent Affy6 CAR-T cells; parental Affy6
- cytotoxicity, Normal Human Liver Cells, 8 hrs [2]: 28.4
- cytotoxicity, Normal Human Liver Cells, 16 hrs [2]: 47.1
- cytotoxicity, Normal Human Liver Cells, 24 hrs [2]: 59
- cytotoxicity, Normal Human Liver Cells, 32 hrs [2]: 67.9
- cytotoxicity, Normal Human Liver Cells, 40 hrs [2]: 76.8
- cytotoxicity, Normal Human Liver Cells, 48 hrs [2]: 83.6
- cytotoxicity, Normal Human Lung Cells, 8 hrs [3]: 38.4
- cytotoxicity, Normal Human Lung Cells, 16 hrs [3]: 47.1
- cytotoxicity, Normal Human Lung Cells, 24 hrs [3]: 54.7
- cytotoxicity, Normal Human Lung Cells, 32 hrs [3]: 63.1
- cytotoxicity, Normal Human Lung Cells, 40 hrs [3]: 76.4
- cytotoxicity, Normal Human Lung Cells, 48 hrs [3]: 85.2
- cytotoxicity, Normal Human Colon Cells, 8 hrs [4]: 24.6
- cytotoxicity, Normal Human Colon Cells, 16 hrs [4]: 37.7
- cytotoxicity, Normal Human Colon Cells, 24 hrs [4]: 46.4
- cytotoxicity, Normal Human Colon Cells, 32 hrs [4]: 57.3
- cytotoxicity, Normal Human Colon Cells, 40 hrs [4]: 72.3
- cytotoxicity, Normal Human Colon Cells, 48 hrs [4]: 83.8
- cytotoxicity, Normal Human Kidney Cells, 8 hrs [5]: 25.7
- cytotoxicity, Normal Human Kidney Cells, 16 hrs [5]: 45.4
- cytotoxicity, Normal Human Kidney Cells, 24 hrs [5]: 57
- cytotoxicity, Normal Human Kidney Cells, 32 hrs [5]: 65.5
- cytotoxicity, Normal Human Kidney Cells, 40 hrs [5]: 73
- cytotoxicity, Normal Human Kidney Cells, 48 hrs [5]: 78.8

- EC50 [1]: 50 nM
- EC50 [6]: 100 nM
B2: Affy7 CAR (control) (other)
chain: GSEQKLISEEDLGSQVQLQQSGPELVRPGASVKMSCRASGYTFTSYWLHWVKQRPGQGLEWIGMIDPSNSDTRFNPNFKDKATLNVDRSSNTAYMLLSSLTSADSAVYYCATYGSYVSPLDYWGQGTSVTVSSGGGGSGGGGSGGGGSDIMMSQSPSSLTVSVGEKVTVSCKSSQSLLYTSSQKNYLAWYQQKPGQSPKLLIYWASTRESGVPDRFTGSGSGTDFTLTITSVKADDLAVYYCQQYYAYPWTFGGGTKLEIKRASTTTPAPRPPTPAPTIASQPLSLRPEACRPAAGGAVHTRGLDFACDFWVLVVVGGVLACYSLLVTVAFIIFWVRSKRSRLLHSDYMNMTPRRPGPTRKHYQPYAPPRDFAAYRSLRVKFSRSADAPAYQQGQNQLYNELNLGRREEYDVLDKRRGRDPEMGGKPRRKNPQEGLYNELQKDKMAEAYSEIGMKGERRRGKGHDGLYQGLSTATKDTYDALHMQALPPR
notes: residues of P2A left at the intracellular C-terminus are not included; also called parent Affy7 CAR-T cells; parental Affy7
- percent cytotoxicity, H1993, 24 hrs [7]: 85.6%
- percent cytotoxicity, H1993, 48 hrs [7]: 97.7%
- percent cytotoxicity, H1993, 72 hrs [7]: 99.6%
- cytotoxicity, Normal Human Liver Cells, 8 hrs [8]: 23.4
- cytotoxicity, Normal Human Liver Cells, 16 hrs [8]: 36.9
- cytotoxicity, Normal Human Liver Cells, 24 hrs [8]: 50.7
- cytotoxicity, Normal Human Liver Cells, 32 hrs [8]: 64
- cytotoxicity, Normal Human Liver Cells, 40 hrs [8]: 71.2
- cytotoxicity, Normal Human Liver Cells, 48 hrs [8]: 73.4
- cytotoxicity, Normal Human Liver Cells, 8 hrs [9]: 17.7
- cytotoxicity, Normal Human Liver Cells, 16 hrs [9]: 30.1
- cytotoxicity, Normal Human Liver Cells, 24 hrs [9]: 38.6
- cytotoxicity, Normal Human Liver Cells, 32 hrs [9]: 46.2
- cytotoxicity, Normal Human Liver Cells, 40 hrs [9]: 59.1
- cytotoxicity, Normal Human Liver Cells, 48 hrs [9]: 68.7
- cytotoxicity, Normal Human Lung Cells, 8 hrs [10]: 14.7
- cytotoxicity, Normal Human Lung Cells, 16 hrs [10]: 33.3
- cytotoxicity, Normal Human Lung Cells, 24 hrs [10]: 50.7
- cytotoxicity, Normal Human Lung Cells, 32 hrs [10]: 57.1
- cytotoxicity, Normal Human Lung Cells, 40 hrs [10]: 59.9
- cytotoxicity, Normal Human Lung Cells, 47 hrs [10]: 56.5
- cytotoxicity, Normal Human Colon Cells, 8 hrs [11]: 13.8
- cytotoxicity, Normal Human Colon Cells, 16 hrs [11]: 29.3
- cytotoxicity, Normal Human Colon Cells, 24 hrs [11]: 34.9
- cytotoxicity, Normal Human Colon Cells, 32 hrs [11]: 42.8
- cytotoxicity, Normal Human Colon Cells, 40 hrs [11]: 54.1
- cytotoxicity, Normal Human Colon Cells, 48 hrs [11]: 60.1
- cytotoxicity, Normal Human Lung Cells, 8 hrs [12]: 31.8
- cytotoxicity, Normal Human Lung Cells, 16 hrs [12]: 35.7
- cytotoxicity, Normal Human Lung Cells, 24 hrs [12]: 43.2
- cytotoxicity, Normal Human Lung Cells, 32 hrs [12]: 55.8
- cytotoxicity, Normal Human Lung Cells, 40 hrs [12]: 67.5
- cytotoxicity, Normal Human Lung Cells, 48 hrs [12]: 76
- percent cytotoxicity, Hs746T, 24 hrs [13]: 87.1%
- percent cytotoxicity, Hs746T, 48 hrs [13]: 97.6%
- percent cytotoxicity, Hs746T, 72 hrs [13]: 99.2%
- percent cytotoxicity, SNU638, 24 hrs [14]: 78.6%
- percent cytotoxicity, SNU638, 48 hrs [14]: 95.9%
- percent cytotoxicity, SNU638, 72 hrs [14]: 99.5%
- cytotoxicity, Normal Human Kidney Cells, 8 hrs [15]: 12.5
- cytotoxicity, Normal Human Kidney Cells, 16 hrs [15]: 27.2
- cytotoxicity, Normal Human Kidney Cells, 24 hrs [15]: 32.4
- cytotoxicity, Normal Human Kidney Cells, 32 hrs [15]: 36.9
- cytotoxicity, Normal Human Kidney Cells, 40 hrs [15]: 47.4
- cytotoxicity, Normal Human Kidney Cells, 48 hrs [15]: 59
- cytotoxicity, Normal Human Kidney Cells, 8 hrs [16]: 32.7
- cytotoxicity, Normal Human Kidney Cells, 16 hrs [16]: 43.5
- cytotoxicity, Normal Human Kidney Cells, 24 hrs [16]: 53.8
- cytotoxicity, Normal Human Kidney Cells, 32 hrs [16]: 61.2
- cytotoxicity, Normal Human Kidney Cells, 40 hrs [16]: 70.2
- cytotoxicity, Normal Human Kidney Cells, 48 hrs [16]: 76.5
- cytotoxicity, Normal Human Colon Cells, 8 hrs [17]: 28.5
- cytotoxicity, Normal Human Colon Cells, 16 hrs [17]: 33.9
- cytotoxicity, Normal Human Colon Cells, 24 hrs [17]: 43.2
- cytotoxicity, Normal Human Colon Cells, 32 hrs [17]: 57
- cytotoxicity, Normal Human Colon Cells, 40 hrs [17]: 69.7
- cytotoxicity, Normal Human Colon Cells, 48 hrs [17]: 79.4

- Fold Change [18]: 1830 fold
- EC50 [6]: 183000 nM
B3: Affy7-Y6I CAR (other)
chain: GSEQKLISEEDLGSQVQLQQSGPELVRPGASVKMSCRASGYTFTSYWLHWVKQRPGQGLEWIGMIDPSNSDTRFNPNFKDKATLNVDRSSNTAYMLLSSLTSADSAVYYCATIGSYVSPLDYWGQGTSVTVSSGGGGSGGGGSGGGGSDIMMSQSPSSLTVSVGEKVTVSCKSSQSLLYTSSQKNYLAWYQQKPGQSPKLLIYWASTRESGVPDRFTGSGSGTDFTLTITSVKADDLAVYYCQQYYAYPWTFGGGTKLEIKRASTTTPAPRPPTPAPTIASQPLSLRPEACRPAAGGAVHTRGLDFACDFWVLVVVGGVLACYSLLVTVAFIIFWVRSKRSRLLHSDYMNMTPRRPGPTRKHYQPYAPPRDFAAYRSLRVKFSRSADAPAYQQGQNQLYNELNLGRREEYDVLDKRRGRDPEMGGKPRRKNPQEGLYNELQKDKMAEAYSEIGMKGERRRGKGHDGLYQGLSTATKDTYDALHMQALPPR
notes: CAR on transduced human T cells; Y to I in HC CDR3; P2A remnant not included; also called MycT-Affy7-Y6I CAR-SSTR2
- percent cytotoxicity, H1993, 24 hrs [7]: 11.7%
- percent cytotoxicity, H1993, 48 hrs [7]: 45.8%
- percent cytotoxicity, H1993, 72 hrs [7]: 73.5%
- cytotoxicity, Normal Human Liver Cells, 8 hrs [8]: 7.8
- cytotoxicity, Normal Human Liver Cells, 16 hrs [8]: 6.2
- cytotoxicity, Normal Human Liver Cells, 24 hrs [8]: 7.4
- cytotoxicity, Normal Human Liver Cells, 32 hrs [8]: 17.8
- cytotoxicity, Normal Human Liver Cells, 40 hrs [8]: 16.4
- cytotoxicity, Normal Human Liver Cells, 48 hrs [8]: 13.6
- cytotoxicity, Normal Human Lung Cells, 8 hrs [12]: 23.1
- cytotoxicity, Normal Human Lung Cells, 16 hrs [12]: 27.5
- cytotoxicity, Normal Human Lung Cells, 24 hrs [12]: 26.9
- cytotoxicity, Normal Human Lung Cells, 32 hrs [12]: 29.7
- cytotoxicity, Normal Human Lung Cells, 40 hrs [12]: 29.9
- cytotoxicity, Normal Human Lung Cells, 48 hrs [12]: 30.9
- percent cytotoxicity, Hs746T, 24 hrs [13]: 1.5%
- percent cytotoxicity, Hs746T, 48 hrs [13]: 45.4%
- percent cytotoxicity, Hs746T, 72 hrs [13]: 69.4%
- percent cytotoxicity, SNU638, 24 hrs [14]: 67%
- percent cytotoxicity, SNU638, 48 hrs [14]: 83.6%
- percent cytotoxicity, SNU638, 72 hrs [14]: 93.2%
- cytotoxicity, Normal Human Kidney Cells, 8 hrs [16]: 20.5
- cytotoxicity, Normal Human Kidney Cells, 16 hrs [16]: 20.9
- cytotoxicity, Normal Human Kidney Cells, 24 hrs [16]: 25.8
- cytotoxicity, Normal Human Kidney Cells, 32 hrs [16]: 27.6
- cytotoxicity, Normal Human Kidney Cells, 40 hrs [16]: 29.7
- cytotoxicity, Normal Human Kidney Cells, 48 hrs [16]: 33.9
- cytotoxicity, Normal Human Colon Cells, 8 hrs [17]: 15.1
- cytotoxicity, Normal Human Colon Cells, 16 hrs [17]: 18.8
- cytotoxicity, Normal Human Colon Cells, 24 hrs [17]: 20.8
- cytotoxicity, Normal Human Colon Cells, 32 hrs [17]: 28.9
- cytotoxicity, Normal Human Colon Cells, 40 hrs [17]: 32.5
- cytotoxicity, Normal Human Colon Cells, 48 hrs [17]: 36.4
